B1: EEHEE_rd4_0469 (parent)
chain: ITIHVNGVTYHFDNPEEAEKFAQKMAKTYQLKMEIHNGEFHME

Variants of: B1
Test: folding stability dG (cDNA display proteolysis); higher = more stable
Details: PBS, room temperature

Folding stability dG [kcal/mol]: each site, then its substitutions
A18: E 0.011 | Y 0.556 | M 0.753 | G 1.03 | R 0.63 | L 0.747 | I 0.525 | Q 0.282 | F 1 | P -0.237
I1: E 0.225 | G 0.443 | W 1.32 | V 1.02 | P 0.64 | D 0.302 | A 0.749
E19: K 1.27 | N 1.32 | W 1.82 | P -0.375 | L 1.61 | A 1.35 | V 1.47 | I 1.5 | S 1.16 | H 1.38
I35: F 1.21 | P 0.562 | T 0.802 | W 1.06 | E 0.844 | H 0.724 | A 0.721
K24: A 1.11 | L 1.48 | M 1.41 | T 1.1 | P -0.407 | E 1.39 | W 2.29
M25: A 0.464 | I 0.968 | V 0.732 | P -0.979 | S 0.059 | F 0.692 | H 0.288 | R 0.041 | Y 0.664 | W 1.07 | K -0.083
G38: V 0.627 | P 0.616 | K 0.72 | F 0.963 | S 0.699 | H 0.885 | T 0.717 | Q 0.664 | N 0.855 | Y 0.871 | R 0.609 | E 0.77
Q23: V 1.26 | K 1.07 | G 0.566 | S 1.05 | T 1.19 | D 0.989 | E 1.14 | N 0.986 | F 1.19 | H 0.988 | L 1.25 | M 1.29
M42: L 1.3 | Y 1.02 | K 0.711 | S 0.715 | R 0.687 | A 0.838 | E 0.615 | D 0.727
Y10: F 1.19 | W 1.07 | C 1.52 | L 0.756 | N -0.261 | H 0.792 | Q -0.14
D13: Y 1.23 | I 1.3 | L 1.28 | K 1.1 | E 1.11 | T 1.25 | V 1.21
F12: A -0.214 | M 0.391 | Y 0.526 | V 0.034 | I 0.352 | N -0.578 | K -0.93 | H -0.29 | C 1.07
F40: H 0.761 | N 0.711 | L 1.37 | P 0.69 | K 0.661
H4: M 0.82 | Y 1.29 | R 1.08 | K 0.918 | I 0.994 | L 0.939 | N 0.813 | W 1.35 | Q 0.774
N37: I 1.1 | L 1.09 | K 0.81 | S 0.831 | G 1.02 | M 1.03 | Y 1.14 | P 0.635 | D 1.02
P15: G 1.04 | S 1.1 | W 1.53 | T 1.14 | Q 1.03 | H 1.13 | I 1.27 | V 1.21
T28: M 1.65 | I 1.6 | A 1.26 | V 1.22 | G 0.636 | H 1.45 | E 2
I3: K 0.19 | W 0.819 | L 0.868 | Y 0.837 | H 0.159 | D 0.068
G7: A 0.95 | M 1.22 | S 1.07 | W 1.43 | V 1.83 | T 0.96 | L 1.33 | R 1.04 | Q 0.959
L31: Q 0.833 | E 1.29 | I 1.15 | Y 1.14
M33: I 1.6 | Q 0.352 | D 0.558 | V 1.46 | L 1.43 | Y 1.11 | C 2.62 | T 0.664 | S 0.431
E39: N 0.81 | M 0.924 | F 0.886 | V 1.07 | Y 0.934 | K 0.828 | L 0.728 | D 0.969 | G 0.755
N6: L 1.79 | K 1.37 | G 1.14 | V 1.42 | Y 1.73 | E 1.2 | P 0.4
K32: Y 1.58 | M 1.44 | W 1.54 | E 1.48 | G 1.13 | L 1.52 | A 1.37 | D 1.31
Q30: T 0.699 | V 0.688 | N 1.17 | L 0.853 | G 1.5 | Y 1.14 | S 0.808
T9: H 1.11 | C 1.86 | V 1.25 | D 0.639 | I 1.19 | M 1.21 | L 1.15 | R 1.4 | G 1.11 | S 1.17
H41: S 0.86 | Y 1.69 | Q 0.682 | D 0.697 | G 0.628 | V 1.11 | C 1.72
A22: N 0.367 | D -0.261 | H 0.587 | R 1.06 | C 1.76 | G 0.3 | E 0.335 | K 0.843 | Y 1.01
Y29: S 1.05 | F 0.965 | L 1.17 | Q 1.05 | P 1.7 | W 0.793 | K 0.768 | H 1.45 | G 1.59 | N 1.29 | A 1.07 | R 0.657
E17: T 1.07 | I 1.09 | K 1.14 | F 0.96 | G 0.714 | Y 0.867 | P 0.444 | W 1.01 | L 1.19
F21: A 0.133 | S -0.647 | V 0.092 | M 0.206 | N -0.383 | Y 0.564 | H 0.061
H11: S 1.05 | R 1.13 | V 1.07 | F 1.17 | W 1.24
K27: Y 1.27 | F 1.25 | L 1.34 | G 0.713 | A 1.32
N14: V 1.1 | F 1.05 | M 0.98 | A 0.947 | G 0.9
H36: M 0.945 | P 0.499 | Q 0.93 | L 1.2 | S 0.832 | E 0.92 | G 0.601 | C 1.69
V8: M 1.18 | W 1.47 | G 0.858 | Q 1.06 | S 1.09 | N 1.12 | R 1.43
T2: D 1.13 | S 1.08 | K 1.31 | G 0.665 | V 1.13 | W 1.47
E16: G 1.02 | S 1.12 | T 1.09 | N 1.03 | A 1.12 | R 1.21 | D 1.25
A26: W 1.63 | F 1.19 | Y 1.45 | P 0.076 | N 0.766
V5: H 0.711 | Y 0.92 | R 0.306 | I 1.14 | L 0.899 | C 1.77 | N 0.312
E43: I 2.02 | L 1.61 | Q 1.21 | T 1.72 | K 1.5 | A 1.2 | V 2.36 | S 1.34
K20: E 1.11 | L 1.23 | C 2.01 | A 1.21 | P 0.383 | F 1.1
E34: H 1.41 | V 1.91 | C 2.43 | Q 0.991 | L 1.26 | R 1.22 | D 0.739

Source: the MegaScale stability set (Tsuboyama et al. 2023)
